Source: patent publication US6849601B1 (priority 1998, dated 2005)
Positions of bridges follow the written chain, without caps; N, C: chain ends. Residues, ends and D or L forms follow the SMILES beside them.

Key:
[1] = test system: bisected rat prostatic vas deferens
[2] = biological target: T1, hamster α1B-adrenoceptor (hamster), P18841
T1 chain: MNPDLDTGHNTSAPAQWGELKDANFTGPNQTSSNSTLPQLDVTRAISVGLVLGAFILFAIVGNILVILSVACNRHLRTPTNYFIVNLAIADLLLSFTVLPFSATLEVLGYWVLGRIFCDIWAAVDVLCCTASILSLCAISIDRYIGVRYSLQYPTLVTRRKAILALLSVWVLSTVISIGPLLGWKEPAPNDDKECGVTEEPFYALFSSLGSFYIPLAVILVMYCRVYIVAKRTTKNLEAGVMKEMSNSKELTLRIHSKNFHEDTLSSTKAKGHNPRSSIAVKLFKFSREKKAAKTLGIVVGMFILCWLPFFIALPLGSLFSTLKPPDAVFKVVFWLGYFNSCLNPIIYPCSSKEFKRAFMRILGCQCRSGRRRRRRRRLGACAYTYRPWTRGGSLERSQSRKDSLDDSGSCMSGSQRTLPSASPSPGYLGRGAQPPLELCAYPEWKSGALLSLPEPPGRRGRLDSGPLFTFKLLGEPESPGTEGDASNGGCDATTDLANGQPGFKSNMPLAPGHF

[3] = biological target: T2, rat α1A-adrenoceptor (rat), P43140
T2 chain: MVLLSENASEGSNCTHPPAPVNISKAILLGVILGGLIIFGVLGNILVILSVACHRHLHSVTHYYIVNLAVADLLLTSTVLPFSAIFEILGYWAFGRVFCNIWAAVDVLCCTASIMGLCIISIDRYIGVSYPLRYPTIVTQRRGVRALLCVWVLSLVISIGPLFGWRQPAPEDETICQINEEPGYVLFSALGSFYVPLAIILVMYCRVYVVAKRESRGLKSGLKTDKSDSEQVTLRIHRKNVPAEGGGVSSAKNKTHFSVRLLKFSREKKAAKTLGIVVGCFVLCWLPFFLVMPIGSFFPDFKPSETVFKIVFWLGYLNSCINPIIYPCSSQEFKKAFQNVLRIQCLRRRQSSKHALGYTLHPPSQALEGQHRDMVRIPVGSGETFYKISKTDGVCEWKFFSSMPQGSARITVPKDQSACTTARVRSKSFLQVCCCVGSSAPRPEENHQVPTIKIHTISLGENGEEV

[4] = biological target: T3, rat α1D-adrenoceptor (rat), P23944
T3 chain: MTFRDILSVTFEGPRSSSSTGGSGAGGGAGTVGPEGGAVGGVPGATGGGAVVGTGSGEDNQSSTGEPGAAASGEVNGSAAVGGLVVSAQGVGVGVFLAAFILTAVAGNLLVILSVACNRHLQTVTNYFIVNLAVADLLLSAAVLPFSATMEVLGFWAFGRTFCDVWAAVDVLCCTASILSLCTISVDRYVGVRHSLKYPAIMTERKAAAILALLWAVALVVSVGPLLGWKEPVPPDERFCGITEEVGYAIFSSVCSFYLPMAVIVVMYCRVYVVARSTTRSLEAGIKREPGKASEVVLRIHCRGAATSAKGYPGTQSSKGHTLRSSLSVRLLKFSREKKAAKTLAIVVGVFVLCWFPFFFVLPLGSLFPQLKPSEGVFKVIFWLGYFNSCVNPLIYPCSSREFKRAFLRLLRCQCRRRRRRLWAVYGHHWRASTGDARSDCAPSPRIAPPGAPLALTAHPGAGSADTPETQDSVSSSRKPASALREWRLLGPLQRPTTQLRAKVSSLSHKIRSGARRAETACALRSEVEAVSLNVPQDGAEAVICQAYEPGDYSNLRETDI

[5] = biological target: T1, hamster α1B-adrenoceptor (hamster), …

Molecule | IC50 [1] [nM] | -log Ki [2] | -log Ki [3] | -log Ki [4] | Ki [5] [nM]
CC[C@H](C)[C@@H]1NC(=O)[C@H](CC(C)C)NC(=O)[C@@H]2CSSC[C@@H](C(N)=O)NC(=O)[C@H](Cc3ccccc3)NC(=O)[C@H](CCCCN)NC(=O)[C@H](CCCCN)NC(=O)[C@H](Cc3c[nH]cn3)NC(=O)[C@H](CC(N)=O)NC(=O)[C@H](CCCNC(=N)N)NC(=O)[C@H](CCCNC(=N)N)NC(=O)[C@H](CSSC[C@H](NC(=O)[C@H](CCCNC(=N)N)NC(=O)[C@H](Cc3c[nH]c4ccccc34)NC(=O)[C@H](CC(N)=O)NC(=O)[C@@H](N)Cc3ccccc3)C(=O)N2)NC(=O)[C@H](C)NC(=O)[C@@H]2CCCN2C1=O [ρ-TIA, FNWRCCLIPACRRNHKKFC] (H-FNWRCCLIPACRRNHKKFC-NH2; disulfide 5-11, 6-19) | ~300 | – | – | – | –
FNWRCCLIPACRRNHKKFC (modifications not checked) [ρ-TIA] | – | 7.7 | 7.29 | 7.09 | 20
